Results taken from article PMC7604772 (The Journal of Cell Biology, 2020).
Square brackets hold non-standard residues; d marks the D form. * marks the point of attachment. Biotin = O=C1N[C@H]2[C@H](CS[C@H]2CCCCC(=O)*)N1; pT = C[C@@H](OP(=O)(O)O)[C@H](N)C(=O)O

B1: biotin-integrin phospho-peptide β1-762-798 pTpT (peptide)
peptide: Biotin-EFAKFEKEKMNAKWDTGENPIYKSAV[pT][pT]VVNPKYEGK-OH
SMILES: CC[C@H](C)[C@H](NC(=O)[C@@H]1CCCN1C(=O)[C@H](CC(N)=O)NC(=O)[C@H](CCC(=O)O)NC(=O)CNC(=O)[C@@H](NC(=O)[C@H](CC(=O)O)NC(=O)[C@H](Cc1c[nH]c2ccccc12)NC(=O)[C@H](CCCCN)NC(=O)[C@H](C)NC(=O)[C@H](CC(N)=O)NC(=O)[C@H](CCSC)NC(=O)[C@H](CCCCN)NC(=O)[C@H](CCC(=O)O)NC(=O)[C@H](CCCCN)NC(=O)[C@H](CCC(=O)O)NC(=O)[C@H](Cc1ccccc1)NC(=O)[C@H](CCCCN)NC(=O)[C@H](C)NC(=O)[C@H](Cc1ccccc1)NC(=O)[C@H](CCC(=O)O)NC(=O)CCCC[C@@H]1SC[C@@H]2NC(=O)N[C@@H]21)[C@@H](C)O)C(=O)N[C@@H](Cc1ccc(O)cc1)C(=O)N[C@@H](CCCCN)C(=O)N[C@@H](CO)C(=O)N[C@@H](C)C(=O)N[C@H](C(=O)N[C@H](C(=O)N[C@H](C(=O)N[C@H](C(=O)N[C@H](C(=O)N[C@@H](CC(N)=O)C(=O)N1CCC[C@H]1C(=O)N[C@@H](CCCCN)C(=O)N[C@@H](Cc1ccc(O)cc1)C(=O)N[C@@H](CCC(=O)O)C(=O)NCC(=O)N[C@@H](CCCCN)C(=O)O)C(C)C)C(C)C)[C@@H](C)OP(=O)(O)O)[C@@H](C)OP(=O)(O)O)C(C)C
B2: biotin-integrin peptide β1-762-798 (peptide)
peptide: Biotin-EFAKFEKEKMNAKWDTGENPIYKSAVTTVVNPKYEGK-OH
SMILES: CC[C@H](C)[C@H](NC(=O)[C@@H]1CCCN1C(=O)[C@H](CC(N)=O)NC(=O)[C@H](CCC(=O)O)NC(=O)CNC(=O)[C@@H](NC(=O)[C@H](CC(=O)O)NC(=O)[C@H](Cc1c[nH]c2ccccc12)NC(=O)[C@H](CCCCN)NC(=O)[C@H](C)NC(=O)[C@H](CC(N)=O)NC(=O)[C@H](CCSC)NC(=O)[C@H](CCCCN)NC(=O)[C@H](CCC(=O)O)NC(=O)[C@H](CCCCN)NC(=O)[C@H](CCC(=O)O)NC(=O)[C@H](Cc1ccccc1)NC(=O)[C@H](CCCCN)NC(=O)[C@H](C)NC(=O)[C@H](Cc1ccccc1)NC(=O)[C@H](CCC(=O)O)NC(=O)CCCC[C@@H]1SC[C@@H]2NC(=O)N[C@@H]21)[C@@H](C)O)C(=O)N[C@@H](Cc1ccc(O)cc1)C(=O)N[C@@H](CCCCN)C(=O)N[C@@H](CO)C(=O)N[C@@H](C)C(=O)N[C@H](C(=O)N[C@H](C(=O)N[C@H](C(=O)N[C@H](C(=O)N[C@H](C(=O)N[C@@H](CC(N)=O)C(=O)N1CCC[C@H]1C(=O)N[C@@H](CCCCN)C(=O)N[C@@H](Cc1ccc(O)cc1)C(=O)N[C@@H](CCC(=O)O)C(=O)NCC(=O)N[C@@H](CCCCN)C(=O)O)C(C)C)C(C)C)[C@@H](C)O)[C@@H](C)O)C(C)C

Biological target: His-Sumo–tagged talin F3 subdomain of the FERM domain (mouse, UniProt P26039 309-411)
Sequence (P26039 309-411): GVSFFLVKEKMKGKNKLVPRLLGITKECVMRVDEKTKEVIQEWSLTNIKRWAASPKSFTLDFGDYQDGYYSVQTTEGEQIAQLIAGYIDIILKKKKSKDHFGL
Test: pull-down

Binder	binding result
B1	binds
B2	binds
